Sequences and labels used below:
T1: Human TREM2 extracellular domain (ECD), residues 19-131, C-terminally biotinylated, deglycosylated (human, UniProt Q9NZC2 19-131, C-terminally biotinylated; deglycosylated)
T1 construct: range 19-131; loaded on Superstreptavidin biosensors; also called triggering receptor expressed on myeloid cells 2; Human BLI (deglycosylated)
T1 sequence (looked up): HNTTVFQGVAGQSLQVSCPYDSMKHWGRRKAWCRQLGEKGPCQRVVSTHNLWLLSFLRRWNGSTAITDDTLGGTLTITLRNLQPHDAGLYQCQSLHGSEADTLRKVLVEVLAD

B1: BCY20051 (peptide)
peptide: CSEYCXWPFYHC
modifications: N-terminal acetyl (Ac); CiSEYCii[2FPhe]WPFYHCiii; Ci, Cii, Ciii on TATA scaffold
B2: BCY20057 (peptide)
peptide: CSEYCFXPFYHC
modifications: N-terminal acetyl (Ac); CiSEYCiiF[6FTrp]PFYHCiii; Ci, Cii, Ciii on TATA scaffold
B3: BCY20083 (peptide)
peptide: Ac-CSEYCFWPFYNC-NH2
modifications: linker 1-5-12 via TATA
SMILES: CC(=O)N[C@H]1CSCCC(=O)N2CN3CN(C2)C(=O)CCSC[C@H](NC(=O)[C@H](Cc2ccc(O)cc2)NC(=O)[C@H](CCC(=O)O)NC(=O)[C@H](CO)NC1=O)C(=O)N[C@@H](Cc1ccccc1)C(=O)N[C@@H](Cc1c[nH]c2ccccc12)C(=O)N1CCC[C@H]1C(=O)N[C@@H](Cc1ccccc1)C(=O)N[C@@H](Cc1ccc(O)cc1)C(=O)N[C@@H](CC(N)=O)C(=O)N[C@H](C(N)=O)CSCCC3=O
B4: BCY20058 (peptide)
peptide: CSEYCFXPFYHC
modifications: N-terminal acetyl (Ac); CiSEYCiiF[5FTrp]PFYHCiii; Ci, Cii, Ciii on TATA scaffold
B5: BCY18220 (peptide)
peptide: ACAEYCFWPFYHCA-NH2
modifications: linker 2-6-13 via TATA; N-terminus assumed
SMILES: C[C@H](N)C(=O)N[C@H]1CSCCC(=O)N2CN3CN(C2)C(=O)CCSC[C@H](NC(=O)[C@H](Cc2ccc(O)cc2)NC(=O)[C@H](CCC(=O)O)NC(=O)[C@H](C)NC1=O)C(=O)N[C@@H](Cc1ccccc1)C(=O)N[C@@H](Cc1c[nH]c2ccccc12)C(=O)N1CCC[C@H]1C(=O)N[C@@H](Cc1ccccc1)C(=O)N[C@@H](Cc1ccc(O)cc1)C(=O)N[C@@H](Cc1c[nH]cn1)C(=O)N[C@H](C(=O)N[C@@H](C)C(N)=O)CSCCC3=O
B6: BCY20102 (peptide)
peptide: CSEYCFWPFXHC
modifications: N-terminal acetyl (Ac); CiSEYCiiFWPF[K(PYA)]HCiii; Ci, Cii, Ciii on TATA scaffold
B7: BCY20062 (peptide)
peptide: CSEYCFXPFYHC
modifications: not fully specified; N-terminal acetyl (Ac); CiSEYCiiF[AzaTrp]PFYHCiii; Ci, Cii, Ciii on TATA scaffold
B8: BCY20096 (peptide)
peptide: CSXYCFWPFYHC
modifications: N-terminal acetyl (Ac); CiS[K(PYA)]YCiiFWPFYHCiii; Ci, Cii, Ciii on TATA scaffold

*1 amine or outer side, *2 acyl side, *3 side chain or, on linkers, in order; H or OH if unused. Bridges are numbered along the chain shown (N, C = ends). Where no end group is shown, it is not given here. [ ]: non-standard residue; d: D form. The star is where a group is joined. TATA = O=C(CC[*:1])N1CN(C(=O)CC[*:2])CN(C(=O)CC[*:3])C1; Phe(4-CF3) = N[C@@H](Cc1ccc(C(F)(F)F)cc1)C(=O)O; Phe(3-Me) = Cc1cccc(C[C@H](N)C(=O)O)c1; 2Nal = N[C@@H](Cc1ccc2ccccc2c1)C(=O)O; Pent4ynoyl = C#CCCC(=O)*; Aib = CC(C)(N)C(=O)O

As usually defined, the Kd is the concentration at which binding is half-saturated. Read a low Kd as a tighter complex.

The target of this assay is T1, Human TREM2 extracellular domain (ECD), …. The assay is described as follows: BLI steady state, deglycosylated human TREM2 ECD on sensor. On the procedure:
Bio-layer interferometry was performed on an Octet RED384® system (Sartorius) at 25° C. in a buffer containing 50 mM HEPES (pH 7.5), 150 mM NaCl and 0.1% Tween. […] Reference wells containing no bicycle peptides and reference sensors loaded with an unrelated protein (His-tagged MLLT3a) were subjected to the same assay protocol and double reference subtraction was used for processing to account for non-specific binding. Traces were analysed using Octet Software (Version 11.0). Association and dissociation curves were globally fit and the response at equilibrium (Req) plotted against concentration to obtain steady-state KD values.
Ac-CSEYCF[Phe(4-CF3)]PFYHC (linker 1-5-12 via TATA) [BCY20065] gave a Kd of 7280 nM.

As to Ac-CSEYCF[Phe(3-Me)]PFYHC (linker 1-5-12 via TATA) [BCY20064], the equilibrium dissociation constant (Kd) was found to be 5240 nM. On to Ac-CSEYCFWPK(Pent4ynoyl)YHC (linker 1-5-12 via TATA) [BCY20101], for which binding was characterised by a dissociation constant (Kd) of 18600 nM. Molecule B1 came in with a Kd of 2040 nM. The value for CSEYCFWPFYHC-NH2 (linker 1-5-12 via TATA) [BCY18219] was 700 nM; that for Ac-CSEYCFWPFQYC (linker 1-5-12 via TATA) [BCY20220] was 1300 nM; that for Ac-CSYYCFWPFQYC (linker 1-5-12 via TATA) [BCY20221] was 690 nM.

As to Ac-ACSEYCFWPFYHCA-NH2 (linker 2-6-13 via TATA) [BCY18218], the Kd came out at 2000 nM. CSEYCFWPXYHC (N-terminal acetyl (Ac); CiSEYCiiFWP[4Pal]YHCiii; Ci, Cii, Ciii on TATA scaffold) [BCY20569] yielded a Kd of 3800 nM. Then Ac-CSEYCFWPFYHCK(Pent4ynoyl) (linker 1-5-12 via TATA) [BCY20085], with 1620 nM; and B2, with 2560 nM. The value for Ac-CSEYCFWPFYHC-NH2 (linker 1-5-12 via TATA) [BCY18217] was 900 nM; that for Ac-CSEYCFWPFEHC (linker 1-5-12 via TATA) [BCY20571] was 2210 nM; that for Ac-CSEYCFWPFY[dA]C (linker 1-5-12 via TATA) [BCY20094] was 2530 nM.

Ac-CSEYCYWPFYHC (linker 1-5-12 via TATA) [BCY20566] came in with a dissociation constant Kd of 2140 nM. On to Ac-CS[dA]YCFWPFYHC (linker 1-5-12 via TATA) [BCY20087], for which the Kd worked out at 18000 nM.

Ac-CSEYCFWPFYFC (linker 1-5-12 via TATA) [BCY20576] registered a Kd of 1350 nM. The value for Ac-CSEYCFWPFDHC (linker 1-5-12 via TATA) [BCY20570] was 1870 nM.

The molecule Ac-CSEYCFWPFYSC (linker 1-5-12 via TATA) [BCY20084] had a dissociation constant (Kd) of 1650 nM.

Molecule Ac-CDEYCFWPFYHC (linker 1-5-12 via TATA) [BCY20563] came in with a Kd of 3170 nM. Then Ac-CSEYCFWPFYDC (linker 1-5-12 via TATA) [BCY20573], with 1960 nM. The value for Ac-CSEYCFWPYYHC (linker 1-5-12 via TATA) [BCY20568] was 2280 nM.

Ac-CSEYCFWPLYHC (linker 1-5-12 via TATA) [BCY20070] gave an equilibrium dissociation constant (Kd) of 1660 nM. Ac-C[dA]EYCFWPFYHC (linker 1-5-12 via TATA) [BCY20086] yielded a dissociation constant Kd of 18000 nM.

Consider Ac-CSEYCFWPF[dA]HC (linker 1-5-12 via TATA) [BCY20093], for which the equilibrium dissociation constant (Kd) is 4680 nM. Then Ac-CSEYCFWPFYEC (linker 1-5-12 via TATA) [BCY20574], with 1740 nM. Then B3, with 1840 nM. Molecule Ac-CSEYCFWPFYQC (linker 1-5-12 via TATA) [BCY20572] registered a dissociation constant (Kd) of 1060 nM.

In turn, Ac-CSEYCFWPFYPC (linker 1-5-12 via TATA) [BCY20082] yielded a Kd of 1930 nM. For the molecule B4, the affinity, expressed as Kd, was 1430 nM. Then ACSEYCFWPFYSCA (linker 2-6-13 via TATA) [BCY17669], with 1200 nM; and ACSEYCFWAFYHCA (linker 2-6-13 via TATA) [BCY18225], with 14000 nM; and ACSEYCFWPFWNCA (Ci, Cii, Ciii on TATA scaffold) [BCY17671], with 900 nM. Regarding ACSEYCFWPFYPCA (linker 2-6-13 via TATA) [BCY17670], the equilibrium dissociation constant (Kd) was 1700 nM. In turn, ACSAYCFWPFYHCA (linker 2-6-13 via TATA) [BCY18221] yielded a Kd of 1800 nM. Then ACSEYCFWPFAHCA (linker 2-6-13 via TATA) [BCY18227], with 3100 nM. Turning to B5, binding was put at a Kd of 2000 nM. Then ACSEYCFWPFYACA (linker 2-6-13 via TATA) [BCY18228], with 2600 nM.

ACSEYCFWPFYLCA (linker 2-6-13 via TATA) [BCY19777] gave a dissociation constant (Kd) of approximately 1200 nM. The value for ACSEYCFWPFFNCA (Ci, Cii, Ciii on TATA scaffold) [BCY17672] was 2000 nM. Molecule Ac-CSEYCFW[Aib]FYHC (linker 1-5-12 via TATA) [BCY19670] had a Kd of 30000 nM. The value for B6 was 1460 nM; that for B7 was 3440 nM. For CSEYCFWPFYXC (N-terminal acetyl (Ac); CiSEYCiiFWPFY[HArg]Ciii; Ci, Cii, Ciii on TATA scaffold) [BCY20575], the Kd was found to be 375 nM. Then B8, with 2500 nM; and Ac-CSEYCFWPFFLC (linker 1-5-12 via TATA) [BCY20222], with 1570 nM; and CSEYCXWPFYHC (N-terminal acetyl (Ac); CiSEYCii[4Pal]WPFYHCiii; Ci, Cii, Ciii on TATA scaffold) [BCY20567], with 1020 nM. Then Ac-CSEYCF[2Nal]PFYHC (linker 1-5-12 via TATA) [BCY20056], with 4690 nM.

Values taken from US20220296726A1 (Bicycle, published 2022).
